The results in this text go back to patent US20130045895A1 (published 2013).

B1: DOM7h-14-10 (other)
VL: DIQMTQSPSSLSASVGDRVTITCRASQWIGSQLSWYQQKPGKAPKLLIMWRSSLQSGVPSRFSGSGSGTDFTLTISSLQPEDFATYYCAQGLRHPKTFGQGTKVEIKR
notes: also called DOM7h-14-10 parent
B2: DOM7h-14-10 A43D (other, name in Kabat numbering)
VL: B1 VL with A43D
notes: also called A43D mutant of DOM7h-14-10
B3: DOM7h-14-10 A43I (other, name in Kabat numbering)
VL: B1 VL with A43I
notes: also called A43I mutant of DOM7h-14-10
B4: DOM7h-11-15 A43D (other, name in Kabat numbering)
VL: DIQMTQSPSSLSASVGDRVTITCRASRPIGTMLSWYQQKPGKDPKLLILAFSRLQSGVPSRFSGSGSGTDFTLTISSLQPEDFATYYCAQAGTHPTTFGQGTKVEIKR
notes: also called A43D mutant of DOM7h-11-15
B5: DOM7h-11-15 A43I (other, name in Kabat numbering)
VL: B4 VL with D43I
notes: also called DOM7h-11-15 A43I mutant
B6: DOM7h-8 L46D (other)
VL: DIQMTQSPSSLSASVGDRVTITCRASQSISSYLNWYQQKPGKAPKDLIYRNSPLQSGVPSRFSGSGSGTDFTLTISSLQPEDFATYYCQQTYRVPPTFGQGTKVEIKR
B7: DOM7h-8 Y87L (other)
VL: B6 VL with D46L, Y87L
B8: DOM7h-14 (other)
VL: B1 VL with L92A, R93A, H94L, K96R
notes: also called 7h14 wt
B9: DOM7h-14 Q38P (other)
VL: B1 VL with Q38P, L92A, R93A, H94L, K96R
B10: DOM7h-14 P44S (other)
VL: B1 VL with P44S, L92A, R93A, H94L, K96R
B11: DOM7h-14 Q38H (other)
VL: B1 VL with Q38H, L92A, R93A, H94L, K96R
B12: DOM7h-14 A43T (other)
VL: B1 VL with A43T, L92A, R93A, H94L, K96R
B13: DOM7h-14 P44C (other)
VL: B1 VL with P44C, L92A, R93A, H94L, K96R
B14: DOM7h-14 Q38M (other)
VL: B1 VL with Q38M, L92A, R93A, H94L, K96R
B15: DOM7h-14 P44G (other)
VL: B1 VL with P44G, L92A, R93A, H94L, K96R
B16: DOM7h-14 P44Q (other)
VL: B1 VL with P44Q, L92A, R93A, H94L, K96R
B17: DOM7h-14 P44K (other)
VL: B1 VL with P44K, L92A, R93A, H94L, K96R
B18: DOM7h-14 Q38A (other)
VL: B1 VL with Q38A, L92A, R93A, H94L, K96R
B19: DOM7h-14 Q38K (other)
VL: B1 VL with Q38K, L92A, R93A, H94L, K96R
B20: DOM7h-14 Q38C (other)
VL: B1 VL with Q38C, L92A, R93A, H94L, K96R
B21: DOM7h-14 Q38W (other)
VL: B1 VL with Q38W, L92A, R93A, H94L, K96R
B22: DOM7h-14 A43Y (other)
VL: B1 VL with A43Y, L92A, R93A, H94L, K96R
B23: DOM7h-14 P44M (other)
VL: B1 VL with P44M, L92A, R93A, H94L, K96R
B24: DOM7h-14 P44I (other)
VL: B1 VL with P44I, L92A, R93A, H94L, K96R
B25: DOM7h-14 Q38Y (other)
VL: B1 VL with Q38Y, L92A, R93A, H94L, K96R
B26: DOM7h-14 Q38N (other)
VL: B1 VL with Q38N, L92A, R93A, H94L, K96R
B27: DOM7h-14 P44N (other)
VL: B1 VL with P44N, L92A, R93A, H94L, K96R
B28: DOM7h-14 Q38E (other)
VL: B1 VL with Q38E, L92A, R93A, H94L, K96R
B29: DOM7h-14 P44R (other)
VL: B1 VL with P44R, L92A, R93A, H94L, K96R
B30: DOM7h-14 P44L (other)
VL: B1 VL with P44L, L92A, R93A, H94L, K96R
B31: DOM7h-14 Q38V (other)
VL: B1 VL with Q38V, L92A, R93A, H94L, K96R
B32: DOM7h-14 P44T (other)
VL: B1 VL with P44T, L92A, R93A, H94L, K96R
B33: DOM7h-14 A43V (other)
VL: B1 VL with A43V, L92A, R93A, H94L, K96R
B34: DOM7h-14 P44V (other)
VL: B1 VL with P44V, L92A, R93A, H94L, K96R
B35: DOM7h-14 Q38R (other)
VL: B1 VL with Q38R, L92A, R93A, H94L, K96R
B36: DOM7h-14 Q38I (other)
VL: B1 VL with Q38I, L92A, R93A, H94L, K96R
B37: DOM7h-14 Q38D (other)
VL: B1 VL with Q38D, L92A, R93A, H94L, K96R
B38: DOM7h-14 P44W (other)
VL: B1 VL with P44W, L92A, R93A, H94L, K96R
B39: DOM7h-14 Q38S (other)
VL: B1 VL with Q38S, L92A, R93A, H94L, K96R
B40: DOM7h-14 P44H (other)
VL: B1 VL with P44H, L92A, R93A, H94L, K96R
B41: DOM7h-14 Q38F (other)
VL: B1 VL with Q38F, L92A, R93A, H94L, K96R
B42: DOM7h-14 Q38T (other)
VL: B1 VL with Q38T, L92A, R93A, H94L, K96R
B43: DOM7h-14 P44D (other)
VL: B1 VL with P44D, L92A, R93A, H94L, K96R
B44: DOM7h-14 P44E (other)
VL: B1 VL with P44E, L92A, R93A, H94L, K96R
B45: DOM7h-14 P44A (other)
VL: B1 VL with P44A, L92A, R93A, H94L, K96R
B46: DOM7h-14 Q38L (other)
VL: B1 VL with Q38L, L92A, R93A, H94L, K96R
B47: DOM7h-14 Q38G (other)
VL: B1 VL with Q38G, L92A, R93A, H94L, K96R

Residue numbers refer to the chain shown, from its start. In names and notes the source's numbering stands.

For one data set, the target named is T1, Human Serum Albumin (human, UniProt P02768 25-609).
T1 construct: also called HSA; antigen
T1 sequence (P02768 25-609 limits assumed): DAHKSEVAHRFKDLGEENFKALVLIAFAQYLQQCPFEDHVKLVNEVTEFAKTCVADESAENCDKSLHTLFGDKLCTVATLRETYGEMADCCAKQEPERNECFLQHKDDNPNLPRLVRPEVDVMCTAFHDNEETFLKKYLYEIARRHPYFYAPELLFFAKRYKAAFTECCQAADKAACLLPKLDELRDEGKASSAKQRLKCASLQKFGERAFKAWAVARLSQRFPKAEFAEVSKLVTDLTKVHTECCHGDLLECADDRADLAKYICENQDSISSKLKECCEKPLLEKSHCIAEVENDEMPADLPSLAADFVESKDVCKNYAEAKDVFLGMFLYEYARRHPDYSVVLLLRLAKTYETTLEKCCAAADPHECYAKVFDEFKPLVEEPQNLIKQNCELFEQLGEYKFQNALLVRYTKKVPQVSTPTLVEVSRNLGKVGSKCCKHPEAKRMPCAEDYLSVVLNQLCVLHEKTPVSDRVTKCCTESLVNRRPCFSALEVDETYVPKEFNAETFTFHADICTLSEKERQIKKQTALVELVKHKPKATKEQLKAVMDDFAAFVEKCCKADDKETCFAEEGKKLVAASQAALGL
Nature of the data set: SPR (Biacore 2000), purified dAb over HSA (559 RU) on CM5 chip.
Excerpt: (§1) The data analysis followed routine and established algorithms using the instrument's software (Bia-evaluation 3.2 RC1).
Regarding B1, the Kd worked out at 26 nM, the koff is 0.017 s⁻¹ and the kon amounted to 670000 M⁻¹ s⁻¹. Taken in the same sequence, the figures for B2 were 11.7 nM, 0.012 s⁻¹ and 990000 M⁻¹ s⁻¹. Consider B3, for which the Kd is 13.1 nM, the koff was determined as 0.012 s⁻¹ and the kon came to 890000 M⁻¹ s⁻¹.

As for B4, the dissociation constant Kd worked out at 7000 nM, the koff came to 0.0047 s⁻¹ and the kon was found to be 664 M⁻¹ s⁻¹. The molecule B5 yielded a Kd of 6.4 nM, a koff of 0.0049 s⁻¹ and a kon of 770000 M⁻¹ s⁻¹.

Another data set has as its target T1, Human Serum Albumin. Nature of the data set: BIAcore, purified protein over HSA (559 RU).
As to B6, the binding result was “binds”. Still for that read-out and setting: then B7, with “binds”.

Another data set addresses T1, Human Serum Albumin. Nature of the data set: SPR (Biacore 2000), purified dAb over HSA (559 RU) on CM5 chip. The source holds these as a separate data set.
Excerpt: as §1
For B2, the “fold improvement in antigen affinity over DOM7h-14-10” value came out at 2 fold. For B3, the “fold improvement in antigen affinity over DOM7h-14-10” value turned out to be 2 fold. As for B5, the “fold improvement in antigen affinity over the DOM7h-11-15 parent” value turned out to be 1000 fold.

The next data set concerns the target T1, Human Serum Albumin. Nature of the data set: BIAcore, supernatant over immobilised HSA (6036 RU).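 Also: expressed culture supernatants of mutant clones diluted 1:1 in HBS-EP buffer and screened for binding.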
Description: Screening of expressed supernatants for Protein L and HSA binding: Mutant clones were picked into a 96 well plate format and expressed in 1 mL 2×TY 0.1 mg/ml carbenicillin supplemented with OnEx solutions 1, 2 and 3 according to the manufacturer's instructions (Novagen). Cultures were grown at 30° C. for 3 days at 950 rpm high humidity in an InforsHT shaker. Cells were pelleted by centrifugation (4.5 k in a bench top Sorvall centrifuge for 30 mins) and 75 μL of the supernatant added to an equal volume of HBS-EP buffer (GE Healthcare).
As to B8, the binding result is on record as “binds”.

B9: the binding result is on record as “binds”.

In the case of B10, the binding result is “binds”. On the same count and under the same terms, then B11, with “binds”; and B12, with “binds”; and B13, with “binds”. On the same count and under the same terms, then B14, with “binds”. The same measure, in the same setting: under B15 stands “binds”. With B16, the binding result was “binds”. As to B17, the binding result is recorded as “binds”. On the same count and under the same terms, under B18 stands “binds”; under B19, “binds”; under B20, “binds”. On the same count and under the same terms, under B21 stands “binds”; under B22, “binds”. Consider B23, for which the binding result is “binds”. Same read-out and setting: under B24 stands “binds”. On the same count and under the same terms, then B25, with “binds”. With B26, the binding result is “binds”. For the molecule B27, the binding result is “binds”. The same measure, in the same setting: then B28, with “binds”. With B29, the binding result is listed as “binds”.

Consider B30, for which the binding result is recorded as “binds”. Same read-out and setting: under B31 stands “binds”; under B32, “binds”; under B33, “binds”. In the case of B34, the binding result is on record as “binds”.

Regarding B35, the binding result is reported as “binds”. For the molecule B36, the binding result is reported as “binds”. Same read-out and setting: then B37, with “binds”; and B38, with “binds”; and B39, with “binds”. As to B40, the binding result is “binds”. Same read-out and setting: then B41, with “binds”; and B42, with “binds”. On the same count and under the same terms, under B43 stands “binds”. The same measure, in the same setting: under B44 stands “binds”; under B45, “binds”. Take B46: the binding result was “binds”. Regarding B47, the binding result was “binds”.

A further data set concerns the molecule itself. Nature of the data set: analytical ultracentrifugation (sedimentation equilibrium), self-association.
Description: In the present examples, three 6-channel equilibrium cells were loaded with 9 protein solutions made by diluting the stock sample 10-, 20-, 30-, 150-, 200-, 300-, 400-, 500, and 600-fold (a range from 540 to 90 μg/ml). Each sample channel was loaded with 120 μl of protein solution and the reference channels were loaded with 125 μl of Dulbecco's phosphate-buffered saline (DPBS) dilution buffer. These cells were then loaded into an AN90-TI rotor and placed into a Beckman Coulter ProteomeLab XL-1 analytical centrifuge equipped with both absorbance and Rayleigh interference (refractive index detection) optical systems. Absorbance scans for the three highest concentrations were recorded at 280 nm; for the lowest concentrations 230 nm was used. The temperature was set at 25° C.
B8 came in with a Kd of 250000 nM.
